# Reference: the supplement of paper PMC10126150
# ± gives the standard deviation of the averaged measurements.
# Test system: ATP
# Assay: switch fluorescence ratio, 500 uM ATP over buffer (Cy3 cluster intensity, sum of 5 cycles each) (fold (ratio)); higher = stronger signal-on switching upon ATP binding; sequences stand for … in TCGTCGGCAGCGTCAGATGTGTATAAGAGACAGTTTTTTTTTTTTTTTTTTTTTTTTT…TC
# Conditions: aptamer strand: ATP DNA aptamer (quencher-CACCTGGGGGAGTATTGCGGAGGAAGG + anchor), 100 nM annealed; ATP concentration: 500 uM
# Method in brief: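 Imaging in selection buffer was followed by imaging after 15 min with 500 uM ATP at 22 °C, for Cy3-labelled switching-strand clusters annealed to 100 nM quencher-labelled ATP aptamer on a modified Illumina MiSeq flow-cell. Five of these buffer/ATP cycles ran, separated by NaOH stripping and re-annealing. The fluorescence ratio per cluster is summed target-cycle over summed buffer-cycle Cy3 intensity, averaged per switch-domain sequence; clusters outside 100-1000 RFU were removed.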
# 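Further: ATP exposure 15 min at 22 °C before imaging.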
row,Sequence,switch fluorescence ratio
1,TTAAAGTTTT,1.01 ± 0.032
2,GCGATGTAGA,1.051 ± 0.0087
3,AGGTGAGGTA,1 ± 0.019
4,ATCTATGCTT,0.989 ± 0.023
5,GACTGCTACT,1.51 ± 0.028
6,TATTAGGGTG,1.05 ± 0.098
7,GTGGACCTGA,1.07 ± 0.02
8,TCTAATTCCT,1.06 ± 0.024
9,TGGGTGCCGT,1.04 ± 0.034
10,GTGGCGAAGG,0.993 ± 0.014
11,AATTGGTGCG,0.985 ± 0.035
12,AATTTAGGAA,0.975 ± 0.037
13,TGACAGGCGG,0.963 ± 0.011
14,GGGGCTATTT,1.01 ± 0.066
15,TATCATGAG,1 ± 0.033
16,TTTGGATGAC,1.01 ± 0.063
17,GGGGCTTGGC,0.999 ± 0.031
18,ACCTTACTTA,1.29 ± 0.029
19,AGTTGTTTG,1.002 ± 0.0099
20,GGCGTGATGC,1.091 ± 0.0076
21,CTTTTTCTTT,1.01 ± 0.057
22,AATTGGAGTG,0.998 ± 0.041
23,GGTGCTGCTA,0.984 ± 0.019
24,TGCGGCAATT,1.09 ± 0.012
25,GAAGGGATTT,1.13 ± 0.11

row,Sequence,switch fluorescence ratio
1,TTTCTCTGTT,1.02 ± 0.011
2,GCGGGATTAT,1.012 ± 0.0057
3,CAATAGTTGG,0.993 ± 0.01
4,TATTAAAGGG,0.985 ± 0.017
5,CTTTATGGGG,0.974 ± 0.029
6,AGGATTAAGG,0.992 ± 0.018
7,CGTCCCTAGC,1.61 ± 0.06
8,AAATTGGTTT,0.995 ± 0.032
9,TAGTTTTCAT,1.021 ± 0.01
10,GGATAGAGTA,1.01 ± 0.0075
11,CAGGACTTGC,0.995 ± 0.03
12,GCTTTAATAA,0.991 ± 0.077
13,CGATGAATTG,0.981 ± 0.023
14,ATTAAAAGTT,0.984 ± 0.038
15,TGGTCTTTTT,0.995 ± 0.037
16,TTGTCCTGTG,1.02 ± 0.036
17,TGGGGTTATG,0.984 ± 0.019
18,TATAAAAAAT,1 ± 0.028
19,AAAGGGTGGG,1.01 ± 0.013
20,CGAAGGCTGG,1.0003 ± 0.00038
21,TTCTAAGGTA,0.993 ± 0.021
22,TACTAGGCG,1.014 ± 0.0083
23,AGTGAGTTTT,1.03 ± 0.024
24,GTTTGTACGA,0.97621 ± 0.0002
25,GGGGTTTCGG,1.02 ± 0.087

row,Sequence,switch fluorescence ratio
1,ATTAAGAGGC,1.02 ± 0.06
2,CTAGGGGTAT,1.03 ± 0.14
3,GCATAAGGGT,1.01 ± 0.038
4,CAAGGTATTG,0.987 ± 0.017
5,AAACAGGGTG,1.05 ± 0.05
6,GCTACAGCTT,1.02 ± 0.015
7,TAGCAACGGG,1.03 ± 0.015
8,GGTTTGCAGC,0.975 ± 0.021
9,AGGTCAACCG,1.02 ± 0.02
10,AATATAGGAA,1.016 ± 0.0092
11,ATGTGTCAAG,0.9675 ± 0.0065
12,CGTGTGATTT,0.988 ± 0.025
13,GCTTCGGATC,1.22 ± 0.038
14,GCCGGAGGGG,1.26 ± 0.39
15,TCTTTTGTG,1.13 ± 0.2
16,CCGAAATGGG,1.5 ± 0.07
17,GCAAAATTGG,1.04 ± 0.02
18,TCGTGGGGGT,0.979 ± 0.045
19,ATAATTTATT,0.996 ± 0.012
20,AGCGCTGGCG,1 ± 0.049
21,AAATAGGGCT,1.004 ± 0.0097
22,CGTATCAAAC,1.23 ± 0.049
23,GAGGTGGGGA,0.9826 ± 0.0055
24,GCGAAAAAGC,0.978 ± 0.046
25,TTACTGGCT,1 ± 0.059

row,Sequence,switch fluorescence ratio
1,GGCGGTATAT,0.99 ± 0.027
2,GGACTGGAGC,0.9905 ± 0.0021
3,TCCAAGTCGA,1.041 ± 0.0033
4,CGCATCAAGT,1.01 ± 0.031
5,AACTTCCGCA,1.29 ± 0.038
6,GGCATGAGAC,1.06 ± 0.047
7,CAGGGGTTGA,0.987 ± 0.035
8,GGAGTTTGGT,1.01 ± 0.056
9,ACTTTAGTTC,1.01 ± 0.036
10,CGTATAATTT,0.97555 ± 0.00021
11,CAGGTTGGGT,1.001 ± 0.0086
12,GTCTAACGCG,0.9698 ± 0.0072
13,CGGTCTGTTC,0.994 ± 0.052
14,TCAAGGCACA,1.089 ± 0.01
15,TGGGGCTTCA,1.01 ± 0.028
16,TTTGGGACGG,0.999 ± 0.065
17,TTATCCGGGT,0.9661 ± 0.0088
18,AGGGCGGGTG,1.047 ± 0.0095
19,GAGTTGGAAG,1.009 ± 0.0071
20,TGTAGTATTT,1 ± 0.013
21,AAGAATTGTG,0.992 ± 0.032
22,AATAAATCCT,1.22 ± 0.021
23,CTCAATTTTA,0.9743 ± 0.006
24,TCTGGGAATG,0.983 ± 0.01
25,ATGCCATTAG,0.967 ± 0.02

row,Sequence,switch fluorescence ratio
1,CGCAATTGAG,3.38 ± 0.17
2,AGGCCCCCCA,1.328 ± 0.013
3,AGGATTAGGA,1.01 ± 0.062
4,CATGATAAT,0.998 ± 0.022
5,CCGCGGGGTG,2.2 ± 0.77
6,GAGAATAATA,0.988 ± 0.032
7,TTGGGGGACT,1.01 ± 0.042
8,GTTGGAGGGG,0.985 ± 0.03
9,AGGTGGAAAC,1.01 ± 0.048
10,TTGTTAATGT,1.06 ± 0.17
11,ACTGGACACA,1.22 ± 0.069
12,AGGCTTAGGG,1.03 ± 0.022
13,TATTAAGGA,0.9762 ± 0.009
14,TTGTAGGGAG,1 ± 0.027
15,AGTTATGTGG,1 ± 0.056
16,GATAGAGGTG,1.32 ± 0.62
17,TCACTCTATC,1.0455 ± 0.00057
18,CTCCAGACGA,1.47 ± 0.083
19,ATAAACGTTT,1.018 ± 0.0069
20,TGAAGGGTAT,1.02 ± 0.033
21,TGGGATGGGG,1.01 ± 0.037
22,CATAACCGGT,1.01 ± 0.027
23,TACAAAAGGT,1.07 ± 0.094
24,GTGGTCCGCG,1.017 ± 0.0015
25,TTTGTTGAGT,1 ± 0.026

row,Sequence,switch fluorescence ratio
1,GTGCTTGCGG,1.01 ± 0.036
2,TAATGGAAGG,1 ± 0.024
3,AATACGGGGG,1.03 ± 0.13
4,GGGGGTCTGT,0.972 ± 0.013
5,TCGGGGGAAT,1.11 ± 0.14
6,TCAAATCGGG,0.999 ± 0.014
7,AGGGGGGCCG,1.08 ± 0.019
8,CTTGTGGCTA,0.956 ± 0.046
9,AATAGTGCCC,0.999 ± 0.053
10,GAGGTTGGCA,0.994 ± 0.01
11,GGGTTAAGCT,0.989 ± 0.029
12,TATGGTCTGT,0.981 ± 0.042
13,GAAATTAGAT,1.003 ± 0.0098
14,GCTCGTAGGC,0.99 ± 0.054
15,ATGGCTGGCG,1.07 ± 0.094
16,AGTAGTCGTC,0.99 ± 0.058
17,TAGGTCCCTG,0.99 ± 0.042
18,AATGTTGGAG,0.985 ± 0.028
19,GTTTTGGTG,1.08 ± 0.12
20,GGGTTAAGGA,0.989 ± 0.036
21,TACTCGAGGG,1.08 ± 0.031
22,GGGGTGAATC,1.03 ± 0.045
23,GGAGGAGGTG,1.02 ± 0.065
24,TCGTGCAACA,0.983 ± 0.025
25,TGTAACGGGA,1.01 ± 0.018

row,Sequence,switch fluorescence ratio
1,ACATAGCTGG,1.01 ± 0.029
2,CATGGTTCTG,1.02 ± 0.027
3,GGGGAAACAG,1 ± 0.018
4,AAGCAGGGGG,0.995 ± 0.018
5,CAGCTGAGGC,0.976 ± 0.038
6,AGTAGGAGCT,0.962 ± 0.026
7,ATTGGATTCA,1.022 ± 0.0023
8,AAGGCAGGTT,1.021 ± 0.0068
9,GGGGGTAAAA,1.01 ± 0.029
10,CAGCTAACTT,1.0399 ± 0.00052
11,GCTGGGAGGT,0.984 ± 0.02
12,TGGAATGGAT,1.01 ± 0.043
13,AAATCGTCGG,0.991 ± 0.024
14,CTGTCGGGTT,1.03 ± 0.04
15,TGCCGTTTTC,1.04 ± 0.011
16,GTTGCAAGAA,1.13 ± 0.06
17,TATATGGGAA,0.998 ± 0.029
18,CTATATACCA,1.06 ± 0.043
19,ACGAGAACGA,1.05 ± 0.021
20,GTTTTTAAGA,1.03 ± 0.022
21,GTGATGTTGT,0.977 ± 0.037
22,GATTGGGGCA,1.02 ± 0.046
23,GGTCTTTAGG,0.99184 ± 0.00074
24,GAATTGGGGA,1.01 ± 0.029
25,TTTTTTGGTT,0.997 ± 0.026

row,Sequence,switch fluorescence ratio
1,TTCAAGGGTT,1.07 ± 0.18
2,AACAGGCGAT,0.985 ± 0.034
3,TATTTGGTGA,0.993 ± 0.025
4,CAGAGGTTCC,1.05 ± 0.042
5,TTGTTTAACT,1.02 ± 0.026
6,TACCAGGCGG,1.04 ± 0.037
7,TATAATCCTG,0.992 ± 0.035
8,TTGTCCGTGC,1.14 ± 0.15
9,GTCGGGGGGA,0.993 ± 0.014
10,TATGTACTAA,1.08 ± 0.023
11,GGTATGACCC,1.0394 ± 0.00014
12,ATGAGTACAG,1.02 ± 0.027
13,TGGATCATGG,0.9753 ± 0.009
14,TGGCGGGGCA,0.998 ± 0.035
15,TTGAGTTACT,0.981 ± 0.063
16,TTTCTGGGGC,1.08 ± 0.08
17,GATGGAACTT,1.02 ± 0.053
18,CAAGTGCAGA,1.052 ± 0.0078
19,AGCTATCAGC,1.01 ± 0.047
20,AAGGAGGGCA,0.984 ± 0.016
21,CCCGAGGGTT,1.01 ± 0.017
22,GTGCAAGGTA,1 ± 0.014
23,TCGAGGGCAG,1.01 ± 0.029
24,ATTGAGATGC,0.938 ± 0.014
25,CGGCAGGGTG,1.05 ± 0.0092
